We go through ten molecules from patent publication US20060257396A1 (published 2006).

Assay [1] concerns the target T1, aggregated synthetic Aβ1-42 (UniProt P05067 672-713).
T1 construct: range 672-713; Aggregated form coated for ELISA; also called aggregated Aβ1-42; aggregate Aβ 1-42
Put plainly: ELISA on aggregated synthetic Aβ1-42 (given as ED50). On the technique in general: In an ELISA, binding on a coated surface is turned into a signal by an enzyme label.

Assay [2] addresses T1, aggregated synthetic Aβ1-42. In words: ELISA on aggregated synthetic Aβ1-42.
The target of a further assay is T2, Monomer (preparation treated with peroxynitrite; modified residues not stated ; The preparation was treated with peroxynitrite. The modified residues are not stated and cannot be shown in the letters.).
T2 construct: Monomer fraction of the same preparation as m4; also called Aβ1-42 monomer; monomeric Aβ
In words: immunoprecipitation of the peroxynitrite treated oligomeric Aβ1-42 preparation with the antibody, SDS-PAGE (16% Tricine), Western blot imaged with 3D6. In general terms: Immunoblotting shows a protein as a band on a membrane.

The target of assay [3] is T3, Aβ peptide (β-amyloid peptide; form and length not stated for the assay) (UniProt P05067 672-713).
T3 construct: also called beta amyloid peptide
Put plainly: ELISA competitive binding assay with biotinylated 3D6.

For assay [4], the target named is T3, Aβ peptide (β-amyloid peptide; form and …). In words: BIAcore.
The target is the same in assay [5]. Put plainly: average of competitive ELISA and BIAcore.
Assay [6] shares this target. Put plainly: BIAcore, Langmuir model (global analysis).
Assay [7] has as its target T1, aggregated synthetic Aβ1-42. In words: competitive Aβ ELISA with biotin conjugated mouse 12A11 Cγ2a.
The target in assay [8] is T3, Aβ peptide (β-amyloid peptide; form and …). In words: Biacore; humanized h12A11v1. Background: SPR reads the build-up and loss of mass on a sensor chip optically.

B1: monoclonal antibody 2C1 (antibody, V domains shown)
VH: EVQLQQSGAELVKPGASVKLSCTGSGFNIKVYYVHWLKQLTEQGLEWIGRIDPENGETIYAPKFQDKATLTVDTSSNTAYLQLSSLTSEDTAVYYCVSSGYWGQGTTLTVSS
VL: DIVMTQSAFSNPVTLGTSASISCRSSKSLLHRNGITYLYWYLQKPGQSPQLLIYQMSNLASGVPDRFTSSGSGTDFTLKISRVEAEDVGVYYCAQNLELWTFGGGTKLEIK
As usually defined, the EC50 is the concentration giving half of the maximal effect. High values mean a need for much substance, low ones an effect from little substance. On to B1, for which the figures for the half-maximal effective concentration (EC50) in assay [1] and in assay [2] were 0.333 nM and under 1 nM, respectively.

B2: murine 12B4 monoclonal antibody (antibody, V domains shown)
VH: QVTLKESGPGILQPSQTLSLTCSFSGFSLSTNGMGVSWIRQPSGKGLEWLAHIYWDEDKRYNPSLKSRLTISKDTSNNQVFLKITNVDTADTATYYCARRRIIYDVEDYFDYWGQGTTLTVSS
VL: DVLMTQTPLSLPVSLGDQASISCRSSQNIVHSNGNTYLEWYLQKPGQSPKLLIYKVSNRFSGVPDRFSGSGSGTDFTLKISRVEAEDLGVYYCFQGSHVPLTFGAGTKLELK
notes: Mouse hybridoma antibody; Leader left out; also called mAb 12B4
As to B2, the binding result with Monomer is “binds”. The EC50 in [1] was 0.667 nM; in assay [2] it was under 1 nM.

B3: murine 12A11 monoclonal antibody (antibody, mouse IgG1, V domains shown)
VH: QVTLKESGPGILKPSQTLSLTCSFSGFSLSTSGMSVGWIRQPSGKGLEWLAHIWWDDDKYYNPSLKSRLTISKDTSRNQVFLKITSVDTADTATYYCARRTTTADYFAYWGQGTTLTVSS
VL: DVLMTQTPLSLPVSLGDQASISCRSSQSIVHSNGNTYLEWYLQKPGQSPKLLIYKVSNRFSGVPDRFSGSGSGTDFTLKISRVEAEDLGIYYCFQSSHVPLTFGAGTKLELK
notes: also called mu12A11; m12A11
As to B3, the concentration giving a half-maximal response (EC50) in [1] is 0.233 nM; in assay [2] it was under 1 nM.

B4: humanized 3D6 version 1 (antibody, V domains shown)
VH: EVQLLESGGGLVQPGGSLRLSCAASGFTFSNYGMSWVRQAPGKGLEWVASIRSGGGRTYYSDNVKGRFTISRDNAKNSLYLQMNSLRAEDTALYYCVRYDHYSGSSDYWGQGTLVTVSS
VL: YVVMTQSPLSLPVTPGEPASISCKSSQSLLDSDGKTYLNWLLQKPGQSPQRLIYLVSKLDSGVPDRFSGSGSGTDFTLKISRVEAEDVGVYYCWQGTHFPRTFGQGTKVEIK
notes: also called h3D6v1; h3D6 v1
The Kd is the free concentration of one partner at which half of the binding sites on the other are occupied at equilibrium, for simple one-to-one binding. The low end stands for a tighter complex, the high end for a looser complex. On to B4, for which the “fold less binding affinity than 3D6” value in assay [3] is about 6 fold. This molecule gave a dissociation constant (Kd) in [4] of 2.06 nM. Moreover, in assay [5], the “fold loss of binding affinity against murine 3D6” value was about 3 fold.

B5: humanized 3D6 version 2 (antibody, V domains shown)
VH: EVQLLESGGGLVQPGGSLRLSCAASGFTFSNYGMSWVRQAPGKGLEWVASIRSGGGRTYYSDNVKGRFTISRDNSKNTLYLQMNSLRAEDTAVYYCVRYDHYSGSSDYWGQGTLVTVSS
VL: DVVMTQSPLSLPVTPGEPASISCKSSQSLLDSDGKTYLNWLLQKPGQSPQRLIYLVSKLDSGVPDRFSGSGSGTDFTLKISRVEAEDVGVYYCWQGTHFPRTFGQGTKVEIK
notes: also called h3D6v2; h3D6 v2
As for B5, the “fold less binding affinity than 3D6” value in [3] was about 6 fold. The molecule also showed a Kd in assay [4] of 2.24 nM. Moreover, the “fold loss of binding affinity against murine 3D6” value in [5] is about 3 fold.

B6: humanized 12A11 version 2 (antibody, V domains shown)
VH: QVQLVESGGGVVQPGRSLRLSCAFSGFTLSTSGMSVGWIRQAPGKGLEWVAHIWWDDDKYYNPSLKSRFTISKDTSKNTLYLQMNSLRAEDTAVYYCARRTTTADYFAYWGQGTTVTVSS
VL: DVVMTQSPLSLPVTPGEPASISCRSSQSIVHSNGNTYLEWYLQKPGQSPQLLIYKVSNRFSGVPDRFSGSGSGTDFTLKISRVEAEDVGVYYCFQSSHVPLTFGQGTKLEIK
notes: V region subcloned into heavy chain expression vector pCMV-Cgamma1 (human γ1); also called h12A11v2
Usually koff stands for the first-order rate constant of dissociation. The low end stands for slow dissociation, the high end for fast dissociation. The term kon denotes the rate constant with which the complex forms. In assay [6], B6 came in with a Ka of 6.86e+07 M⁻¹, a dissociation constant (Kd) of 14.6 nM, a dissociation rate constant (koff) of 0.00412 s⁻¹ and a kon of 283000 M⁻¹ s⁻¹.

B7: humanized 12A11 version 3 (antibody, V domains shown)
VH: QVQLVESGGGVVQPGRSLRLSCAFSGFTLSTSGMSVGWIRQAPGKGLEWVAHIWWDDDKYYNPSLKSRFTISRDNSKNTLYLQMNSLRAEDTAVYYCARRTTTADYFAYWGQGTTVTVSS
VL: DVVMTQSPLSLPVTPGEPASISCRSSQSIVHSNGNTYLEWYLQKPGQSPQLLIYKVSNRFSGVPDRFSGSGSGTDFTLKISRVEAEDVGVYYCFQSSHVPLTFGQGTKLEIK
notes: Variable regions only; made like version 2; also called h12A11v3; humanized 12A11 v3
On to B7, for which, in [6], the Ka was 6.53e+07 M⁻¹, the Kd came out at 15.3 nM, the koff came to 0.0055 s⁻¹ and the kon turned out to be 359000 M⁻¹ s⁻¹.

B8: humanized 12A11 version 1 (antibody, V domains shown)
VH: QVQLVESGGGVVQPGRSLRLSCAFSGFSLSTSGMSVGWIRQAPGKGLEWLAHIWWDDDKYYNPSLKSRLTISKDTSKNTVYLQMNSLRAEDTAVYYCARRTTTADYFAYWGQGTTVTVSS
VL: DVVMTQSPLSLPVTPGEPASISCRSSQSIVHSNGNTYLEWYLQKPGQSPQLLIYKVSNRFSGVPDRFSGSGSGTDFTLKISRVEAEDVGVYYCFQSSHVPLTFGQGTKLEIK
notes: Variable regions only tied to the tested antibody; also called h12A11v1; humanized 12A11 v1
In the case of B8, the “IC50 ratio to murine and chimeric 12A11” value in assay [7] was at most 2 fold. In [6], this molecule showed a Ka of 3.48e+08 M⁻¹, a Kd of 2.87 nM, an off-rate (koff) of 0.00117 s⁻¹ and a kon of 408000 M⁻¹ s⁻¹. In addition, the Kd in assay [8] stood at 23 nM.

B9: humanized 12A11 version 3.1 (antibody, V domains shown)
VH: QVQLVESGGGVVQPGRSLRLSCAFSGFTLSTSGMSVGWIRQAPGKGLEWLAHIWWDDDKYYNPSLKSRFTISKDNSKNTLYLQMNSLRAEDTAVYYCARRTTTADYFAYWGQGTTVTVSS
VL: DVVMTQSPLSLPVTPGEPASISCRSSQSIVHSNGNTYLEWYLQKPGQSPQLLIYKVSNRFSGVPDRFSGSGSGTDFTLKISRVEAEDVGVYYCFQSSHVPLTFGQGTKLEIK
notes: Variable regions only tied to the tested antibody; also called h12A11v3.1; humanized 12A11 v3.1
For the molecule B9, in assay [6], the Ka came out at 1.67e+08 M⁻¹, binding was put at a Kd of 5.99 nM, the off-rate constant (koff) was determined as 0.00313 s⁻¹ and the association rate constant (kon) is 523000 M⁻¹ s⁻¹.

B10: humanized 12A11 version 2.1 (antibody, V domains shown)
VH: QVQLVESGGGVVQPGRSLRLSCAFSGFTLSTSGMSVGWIRQAPGKGLEWVAHIWWDDDKYYNPSLKSRFTISKDNSKNTLYLQMNSLRAEDTAVYYCARRTTTADYFAYWGQGTTVTVSS
VL: DVVMTQSPLSLPVTPGEPASISCRSSQSIVHSNGNTYLEWYLQKPGQSPQLLIYKVSNRFSGVPDRFSGSGSGTDFTLKISRVEAEDVGVYYCFQSSHVPLTFGQGTKLEIK
notes: Variable regions only; made like version 2; also called h12A11v2.1
Consider B10, for which, in [6], the Ka came out at 1.17e+08 M⁻¹, the Kd stood at 8.54 nM, the off-rate (koff) was determined as 0.00261 s⁻¹ and the kon was determined as 306000 M⁻¹ s⁻¹.
